In patent US20240067729A1 (PALLEON PHARMACEUTICALS, published 2024):

Assays:
[1] = molecular target: human PD-L1 (hPD-L1) coated on ELISA wells, Example 7 (human, UniProt Q9NZQ7 19-238, limits assumed); experiment: blocking ELISA: titrated + biotinylated hPD-1-Fc 1 ug/mL on coated hPD-L1
Text: The plate was developed with TMB and Stop buffer and the absorbance at 450 nm was read using a SpectraMax plate reader.

[2] = molecular target: T1, human PD-L1 expressed on cells (HCC827, NCI-H292, CHO-PD-L1, engineered CHO-K1) (human, UniProt Q9NZQ7 19-290); experiment: flow cytometry on NCI-H292 cells, apparent Kd; calculated using data points up to 3.7 nM
T1 construct: whole, on cells; Endogenous on the human lung lines HCC827 and NCI-H292; transfected on CHO cells; also called PD-L1 on HCC827; PD-L1 on NCI-H292
Experimental: (§1) The ability of PD-L1 antibody sialidase conjugates to bind PD-L1 on HCC827 and NCI-H292 cells was examined next. […] After washing with staining buffer, cells were incubated with AF647 Goat anti-human IgG(H+L) in staining buffer at 4° C. for 30 min. After 2× wash with staining buffer, cells were fixed and run on FACSCelesta.

[3] = molecular target: T2, human PD-L1, his tagged (hPD-L1-his) (human, UniProt Q9NZQ7 19-238, limits assumed); experiment: BLI (ForteBio Octet), human PD-L1
T2 construct: also called huPD-L1-His; recombinant human PD-L1; not shown: his tag

[4] = molecular target: T1, human PD-L1 expressed on cells (HCC827, …); experiment: flow cytometry on HCC827 cells, apparent Kd; calculated using data points up to 3.7 nM
Experimental: as §1

[5] = molecular target: T3, cynomolgus PD-L1, his tagged (cPD-L1-his) (cynomolgus (Macaca fascicularis), UniProt G7PSE7 19-238); experiment: BLI (ForteBio Octet), cynomolgus PD-L1
T3 construct: also called cyPD-L1-His; Cyno PD-L1

[6] = molecular target: T1, human PD-L1 expressed on cells (HCC827, …); experiment: cell-based or functional assay

T1 sequence (Q9NZQ7 19-290, change not shown): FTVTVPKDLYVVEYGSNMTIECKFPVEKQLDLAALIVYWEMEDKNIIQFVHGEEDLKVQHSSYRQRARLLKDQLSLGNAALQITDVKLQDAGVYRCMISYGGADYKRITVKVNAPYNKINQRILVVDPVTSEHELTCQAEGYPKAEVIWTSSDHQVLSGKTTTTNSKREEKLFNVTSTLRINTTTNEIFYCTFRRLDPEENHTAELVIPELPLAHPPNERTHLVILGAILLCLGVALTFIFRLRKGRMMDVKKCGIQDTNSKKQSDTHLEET
T3 sequence (G7PSE7 entry or part of it limits assumed, form in doubt): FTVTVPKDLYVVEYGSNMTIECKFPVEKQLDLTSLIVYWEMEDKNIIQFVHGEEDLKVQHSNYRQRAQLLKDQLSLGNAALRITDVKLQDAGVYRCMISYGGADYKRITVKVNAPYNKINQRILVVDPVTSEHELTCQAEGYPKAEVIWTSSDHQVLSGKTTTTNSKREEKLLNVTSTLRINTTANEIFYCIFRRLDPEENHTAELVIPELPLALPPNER
T2 sequence (Q9NZQ7 19-238 limits assumed): as the sequence (G7PSE7 entry or part of it limits assumed, form in doubt) above, with T33A, S34A, N62S, Q68R, R82Q, L173F, A185T, I192T, L215H counted along it
human PD-L1 (hPD-L1) coated on ELISA wells, Example 7, sequence (Q9NZQ7 19-238 limits assumed): as the sequence (G7PSE7 entry or part of it limits assumed, form in doubt) above, with T33A, S34A, N62S, Q68R, R82Q, L173F, A185T, I192T, L215H counted along it

IC50 [1]: 1.44 nM
Kd [2]: 0.0973 nM
Kd [3]: 2.13 nM
koff [3]: 0.000728 s⁻¹
kon [3]: 346000 M⁻¹ s⁻¹
Kd [4]: 0.125 nM
Kd [5]: 1.53 nM
koff [5]: 0.000443 s⁻¹
kon [5]: 297000 M⁻¹ s⁻¹
EC50 (NFAT-luciferase fold induction) [6]: 0.56 nM
B1: h769.T-1A (antibody, V domains shown)
VH: EVQLVQSGAEVKKPGATVKISCKVSGFNIKDTYMHWVQQAPGKGLEWMGLIDPANDNTIYAEKFQGRVTITADTSTDTAYMELSSLRSEDTAVYYCAREGYGGSYGEGYWGQGTLVTVSS
VL: EIVMTQSPPTLSLSPGERVTLSCRASQSVSNDLSWYQQKPGQAPRLLIYYASIRFTGIPARFSGSGSGTDFTLTISSLQPEDFAVYYCQQDYTSPWTFGQGTKVEIK
notes: bivalent
